According to US20060073572A1, “Cytokine structurally related to IL-17” (The Johns Hopkins University, priority 2001, published 2006):
Entries after “also recorded” stand apart in the source; their conditions may differ.

Assays:
[1] = test system: ICAM-1; test: ICAM-1 surface protein expression on NHBE cells by flow cytometry; type: cell-based, human; settings: 100 ng/ml, 48 hours, mean±SD (n=4)
Protocol: FIG. 4. Effect of ML-1 on ICAM-1 surface expression on NHBE cells by Flow Cytometry. NHBE cells were treated for 48 hours under following conditions: medium only, rIL-17 (100 ng/ml), purified His-tagged protein (Positope, 100 ng/ml), or ML-1 (100 ng/ml) as indicated. The mean fluorescence intensity of ICAM-1 surface expression was measured. The experiment was conducted four times. The results shown are from a representative experiment. * p<0.01.
To determine whether ML-1 is able to induce ICAM-1 expression on NHBE cells, surface expression of ICAM-1 on NHBE cells was measured and the effects of ML-1 and IL-17 were compared.
NHBE cells were treated with IL-17 (100 ng/ml), ML-1 (100 ng/ml), or a control His protein (Positope, 100 ng/ml). The cells were harvested following treatment with 0.1% trypsin-0.02% EDTA at 37° C. for 6 minutes and suspended in PBS containing 2% BSA and 0.02 % sodium azide. One million cells were incubated with a mouse anti-human ICAM-1 monoclonal antibody (R&D Systems, Minneapolis, Minn.) on ice for 30 minutes. […] After three additional washes in PBS, the cells were resuspended in PBS and immediately analyzed with a FACScan flow cytometer (Becton Dickinson, Mountain View, Calif.). […] Indices are expressed as mean±SD (n=4).

[2] = test system: IL-8; test: IL-8 expression in HUVECs (ELISA, RT-PCR); type: cell-based, human; settings: ML-1 10 and 100 ng/ml, 24 and 48 hours, ELISA
Protocol: FIG. 5. Analysis of IL-6 (FIG. 5A) and IL-8 (FIG. 5B) expression in primary bronchial epithelial cells (PBECs) and human umbilical vein endothelial cells (HUVECs) stimulated by ML-1. The IL-6 and IL-8 protein release in the supernatant was determined by ELISA as described in Example 8. The results were expressed as mean+SD (n=6). *p<0.05 was considered significant vs control.
FIG. 7A-7D. Effect of PD98059 on IL-6 (FIG. 7A) and IL-8 (FIG. 7B) protein production in PBECs and HUVECs. The cells were preincubated with varying concentrations of PD98059, SB202190, or DMSO vehicle control for 1 hour, followed by stimulation with ML-1 (100 ng/ml) for 24 hours. The results are expressed as the mean+SD (n=6). *P<0.05 when compared to cultures without the addition of PD98059. FIGS. 7C and 7D. Semi-quantitative analysis of gene expression for IL-6 (FIG. 7C) and IL-8 (FIG. 7D) by RT-PCR. The cells were preincubated as described above and treated with ML-1 for 4 hours. RT-PCR was performed as described in Example 8. The results shown are representative of three separate experiments.
Human umbilical vein endothelial cells (HUVECs) were obtained from Clonetics and cultured in endothelial cell growth media (EGM; Clonetics) containing 12 μg/ml bovine brain extract, 10 ng/ml EGF, 1 μg/ml hydrocortisone, 50 μg/ml gentimicin, 50 ng/ml amphotericin B, and 5% FBS amphotericin-B (Clonetics).
PBECs and HUVECs were treated with ML-1 100 ng/ml of ML-1 for various time points. Total RNA was extracted using RNeasy (Qiagen) from 1×10^6 cells 4 hours after stimulation or exchange of media. […]
The amplification reaction was performed for 23 cycles with denaturation at 94° C. for 45 seconds, annealing at 56° C. for 45 seconds, and extension at 72° C. for 45 seconds. PCR products were detected by ethidium bromide staining and normalized by the intensity of an amplified housekeeping gene, G3PDH (see above). […] IL-6 and IL-8 protein levels in the collected supernatants were determined with a commercially available ELISA kit (Biosource, Camarillo, Calif.) according to the manufacturer's instructions.

B1: ML-1: new member of the IL-17 cytokine family, SEQ ID NO:2; His-tagged recombinant protein expressed in COS-7 cells and affinity purified (protein, listed as Homo sapiens)
chain: MKLDIGIINENQRVSMSRNIESRSTSPWNYTVTWDPNRYPSEVVQAQCRNLGCINAQGKEDISMNSVPIQQETLVVRRKHQGCSVSFQLEKVLVTVGCTCVTPVIHHVQ
modifications: His tag
ICAM-1 surface expression, mean fluorescence intensity (MFI) [1]: 31.42±4.39
IL-8 production [2]: time-dependent increase; also recorded: significantly induced
